According to US20070099268A1, “Chimeric HCN channels” (priority 2005, published 2007):
“Also recorded” adds a separate entry of the source.

Columns and labels:
[1] = system: AdHCN2 infected culture; test: Modulation of spontaneous rate by drugs in an AdHCN2 infected culture; type: cell-based, rat; settings: superfusion with drug; control record of same culture 48, 54 and 96 beats/min respectively
[2] = system: cell-free patches from Xenopus oocytes; settings: binding of cAMP to the CNBD; cited from earlier work
[3] = system: Xenopus oocytes; test: Two-microelectrode voltage clamp of mHCN2 and mE324A expressed in Xenopus oocytes; type: cell-based, Xenopus laevis
Procedure: Oocytes were prepared from mature female Xenopus laevis in accordance with an approved protocol as previously described (Yu et al., 2004).
For expression of HCN in Xenopus oocytes, oocytes were injected with 5 ng of cRNA made from mouse wild-type mHCN2 and mutant mHCN2 (E324A) plasmids. Injected oocytes were incubated at 18° C. for 24-48 h prior to electrophysiological analysis.
For measurements in Xenopus oocytes, oocytes were voltage-clamped using a two-microelectrode voltage clamp technique. The extracellular recording solution (OR2) contained (in mM): NaCl, 80; KCl, 2; MgCl2, 1; and Na-HEPES, 5 (pH 7.6). For the recording of steady state activation of expressed Wt mHCN2, currents were elicited by 2-s long hyperpolarizing pulses between −30 mV and −160 mV with 10 mV increments, followed by a 1-s depolarizing pulse to +15 mV. The holding potential was −30 mV. As to the mHCN2 (E324A), currents were elicited by 3-s-long hyperpolarizing pulses between +20 mV and −130 mV with 10 mV increments, followed by a 1 second depolarizing pulse to +50 mV. The holding potential was +20 mV. To construct the current/voltage relationship for wildtype (Wt) mHCN2, the cell was held at […], the current was elicited by a 2-s hyperpolarizing voltage step to −140 mV to saturate activation, and followed by 2-s depolarizing voltage steps between […] and +50 mV in 10 mV increments. For mHCN2 (E324A), the cell was held at +20 mV, current was elicited by a 1.5-s hyperpolarizing voltage step to −110 mV to saturate activation, and then followed by 1.5-s depolarizing voltage steps between −80 mV and +50 mV in 10 mV increments for the recording of tail currents. To record the current amplitudes for Wt mHCN2, the current was evoked by applying a 3-s hyperpolarizing voltage pulse to −120 mV from a holding potential of −30 mV. For mHCN2 (E324A), the current was evoked by applying a 3-s hyperpolarizing voltage pulse to −120 mV from a holding potential of +20 mV.

[4] = system: neonatal rat ventricular myocytes; test: Voltage clamp of HCN2 or HCN4 plasmid (lipofectin) expressed in neonatal rat ventricular myocytes; type: cell-based
From the text: cDNAs encoding mouse HCN2 (mHCN2, GenBank AJ225122) or HCN4 (mHCN4, GenBank deposit in progress) were subcloned into the pCI mammalian expression vector (Promega, Madison, Wis.). The resulting plasmids (pCI-mHCN2 or pCI-mHCN4) were used for neonatal rat ventricular myocyte transfection, as indicated. A separate plasmid (pEGFP-CI; Clontech, Palo Alto, Calif.) expressing the gene of enhanced green fluorescent protein (EGFP) as a visual marker for successful DNA transfer was included in all transfection experiments. For transfection, 2 μg of pCI-mHCN and […] of pEGFP-CI were first incubated in 200 μl of SFM containing 10 μl of lipofectin (Gibco Life Technologies, Rockville, Md.) at room temperature for 45 min. The mixture was then added to a 35-mm petri dish containing […] suspended in 0.8 ml of SFM. After overnight incubation at 37° C. in a CO2 incubator, the medium containing the plasmids and lipofectin was discarded and the dish was refilled with 2 ml of fresh SFM.
The whole-cell voltage clamp technique was employed to record native If or expressed IHCN2 or IHCN4. Action potentials were recorded in current clamp mode, again using a whole cell patch electrode. Experiments were carried out on cells superfused at 35° C. Extracellular solution contained (mM): NaCl, 140; NaOH, 2.3; MgCl2, 1; KCl, 5.4; CaCl2, 1.0; HEPES, 5; glucose, 10; pH 7.4. To record from myocytes expressing native currents (If), myocytes expressing HCN2 (IHCN2) or HCN4 (IHCN4), [K^+]0 was increased to 10 mM, and MnCl2 (2 mM) and BaCl2 (4 mM) added to the superfusate to eliminate calcium and inward rectifier (IK1) currents. In some experiments CsCl (4 mM) was used extracellularly to identify the pacemaker current as the Cs-sensitive current. The patch pipette solution included (mM): aspartic acid, 130; KOH, 146; NaCl, 10; CaCl2, 2; EGTA-KOH, 5; Mg-ATP, 2; HEPES-KOH, 10, pH 7.2. Where indicated, 10 μM cAMP was included in the pipette solution. A fast solution changing apparatus expedited the experimental protocols. The pipette resistance was typically 1-3 M. An Axopatch-200B amplifier and pClampS software (Axon Instruments) were used for acquisition and data analysis. […]
The activation relation of the native or expressed current can be determined from the steady-state I-V relation. In this case, the reversal potential (Vf) was separately determined from the fully activated I-V relation (Accili et al., 1991) and used to generate the activation relation (y=I/(gmax*(V−Vf)), where gmax is the maximal conductance). […] Tail currents were measured at a negative voltage (−125 mV) to avoid contamination by transient outward and other currents at less negative voltages. […]

[5] = system: mammalian expression systems; settings: cited from earlier work

C[N+](C)(C)CCOC(N)=O [carbachol]
spontaneous rate during drug exposure [1]: 45 beats/min

CCN(c1ccccc1)c1cc(=NC)n(C)c(C)n1.Cl [ZD-7288]
spontaneous rate during drug exposure [1]: 78 beats/min

B1: HCN1: mouse HCN1 channel isoform (protein)
chain: MEGGGKPNSASNSRDDGNSVFPSKAPATGPVAADKRLGTPPGGGAAGKEHGNSVCFKVDGGGGEEPAGSFEDAEGPRRQYGFMQRQFTSMLQPGVNKFSLRMFGSQKAVEKEQERVKTAGFWIIHPYSDFRFYWDLIMLIMMVGNLVIIPVGITFFTEQTTTPWIIFNVASDTVFLLDLIMNFRTGTVNEDSSEIILDPKVIKMNYLKSWFVVDFISSIPVDYIFLIVEKGMDSEVYKTARALRIVRFTKILSLLRLLRLSRLIRYIHQWEEIFHMTYDLASAVVRIFNLIGMMLLLCHWDGCLQFLVPLLQDFPPDCWVSLNEMVNDSWGKQYSYALFKAMSHMLCIGYGAQAPVSMSDLWITMLSMIVGATCYAMFVGHATALIQSLDSSRRQYQEKYKQVEQYMSFHKLPADMRQKIHDYYEHRYQGKIFDEENILSELNDPLREEIVNFNCRKLVATMPLFANADPNFVTAMLSKLRFEVFQPGDYIIREGAVGKKMYFIQHGVAGVITKSSKEMKLTDGSYFGEICLLTKGRRTASVRADTYCRLYSLSVDNFNEVLEEYPMMRRAFETVAIDRLDRIGKKNSILLQKFQKDLNTGVFNNQENEILKQIVKHDREMVQAIPPINYPQMTALNCTSSTTTPTSRMRTQSPPVYTATSLSHSNLHSPSPSTQTPQPSAILSPCSYTTAVCSPPIQSPLATRTFHYASPTASQLSLMQQPQQQLPQSQVQQTQTQTQQQQQQQQQQQQQQQQQQQQQQQQQQQQQQQQQQQQQPQTPGSSTPKNEVHKSTQALHNTNLTKEVRPLSASQPSLPHEVSTLISRPHPTVGESLASIPQPVAAVHSTGLQAGSRSTVPQRVTLFRQMSSGAIPPNRGVPPAPPPPAAVQRESPSVLNTDPDAEKPRFASNL
shift of activation curve to more positive potentials by cAMP [2]: 4 mV

B2: mE324A: mHCN2 with glutamate at position 324 mutated to alanine (protein, UniProt O88703 1-863, looked up, variant E324A)
Potassium/sodium …: MDARGGGGRPGDSPGTTPAPGPPPPPPPPAPPQPQPPPAPPPNPTTPSHPESADEPGPRARLCSRDSACTPGAAKGGANGECGRGEPQCSPEGPARGPKVSFSCRGAASGPSAAEEAGSEEAGPAGEPRGSQASFLQRQFGALLQPGVNKFSLRMFGSQKAVEREQERVKSAGAWIIHPYSDFRFYWDFTMLLFMVGNLIIIPVGITFFKDETTAPWIVFNVVSDTFFLMDLVLNFRTGIVIEDNTEIILDPEKIKKKYLRTWFVVDFVSSIPVDYIFLIVEKGIDSEVYKTARALRIVRFTKILSLLRLLRLSRLIRYIHQWAEIFHMTYDLASAVMRICNLISMMLLLCHWDGCLQFLVPMLQDFPSDCWVSINNMVNHSWSELYSFALFKAMSHMLCIGYGRQAPESMTDIWLTMLSMIVGATCYAMFIGHATALIQSLDSSRRQYQEKYKQVEQYMSFHKLPADFRQKIHDYYEHRYQGKMFDEDSILGELNGPLREEIVNFNCRKLVASMPLFANADPNFVTAMLTKLKFEVFQPGDYIIREGTIGKKMYFIQHGVVSVLTKGNKEMKLSDGSYFGEICLLTRGRRTASVRADTYCRLYSLSVDNFNEVLEEYPMMRRAFETVAIDRLDRIGKKNSILLHKVQHDLSSGVFNNQENAIIQEIVKYDREMVQQAELGQRVGLFPPPPPPQVTSAIATLQQAVAMSFCPQVARPLVGPLALGSPRLVRRAPPGPLPPAASPGPPAASPPAAPSSPRAPRTSPYGVPGSPATRVGPALPARRLSRASRPLSASQPSLPHGVPAPSPAASARPASSSTPRLGPAPTARTAAPSPDRRDSASPGAASGLDPLDSARSRLSSNL
activation threshold [3]: around −30 mV
slope (s) with cAMP ([3]; 8-Br-cAMP 1 mM): 19.7 mV
Vh with cAMP ([3]; 8-Br-cAMP 1 mM extracellular): −48.9 mV
effect of Cs+ on inward current ([3]; Cs+ 5 mM): blocked; also recorded: large inhibition
slope (s), control ([3]; control): 15.2 mV
reversal potential of IHCN2 ([3]; fully activated current/voltage relation): ~−40 mV
half maximal activation (Vh), control ([3]; oocytes, control): −57.3 mV
induced current ([3]; single voltage pulse to −120 mV): 579.8±18.2 nA

B3: HCN4: mouse HCN4 channel isoform (protein, UniProt O70507 1-1201, looked up)
Potassium/sodium …: MDKLPPSMRKRLYSLPQQVGAKAWIMDEEEDGEEEGAGGRQDPSRRSIRLRPLPSPSPSVAAGCSESRGAALGATESEGPGRSAGKSSTNGDCRRFRGSLASLGSRGGGSGGAGGGSSLGHLHDSAEERRLIAAEGDASPGEDRTPPGLATEPERPATAAQPAASPPPQQPPQPASASCEQPSADTAIKVEGGAAASDQILPEAEVRLGQSGFMQRQFGAMLQPGVNKFSLRMFGSQKAVEREQERVKSAGFWIIHPYSDFRFYWDLTMLLLMVGNLIIIPVGITFFKDENTTPWIVFNVVSDTFFLIDLVLNFRTGIVVEDNTEIILDPQRIKMKYLKSWFVVDFISSIPVDYIFLIVETRIDSEVYKTARALRIVRFTKILSLLRLLRLSRLIRYIHQWEEIFHMTYDLASAVVRIVNLIGMMLLLCHWDGCLQFLVPMLQDFPHDCWVSINGMVNNSWGKQYSYALFKAMSHMLCIGYGRQAPVGMSDVWLTMLSMIVGATCYAMFIGHATALIQSLDSSRRQYQEKYKQVEQYMSFHKLPPDTRQRIHDYYEHRYQGKMFDEESILGELSEPLREEIINFNCRKLVASMPLFANADPNFVTSMLTKLRFEVFQPGDYIIREGTIGKKMYFIQHGVVSVLTKGNKETKLADGSYFGEICLLTRGRRTASVRADTYCRLYSLSVDNFNEVLEEYPMMRRAFETVALDRLDRIGKKNSILLHKVQHDLNSGVFNYQENEIIQQIVRHDREMAHCAHRVQAAASATPTPTPVIWTPLIQAPLQAAAATTSVAIALTHHPRLPAAIFRPPPGPGLGNLGAGQTPRHPRRLQSLIPSALGSASPASSPSQVDTPSSSSFHIQQLAGFSAPPGLSPLLPSSSSSPPPGACGSPPAPTPSTSTAAAASTTGFGHFHKALGGSLSSSDSPLLTPLQPGARSPQAAQPPPPLPGARGGLGLLEHFLPPPPSSRSPSSSPGQLGQPPGELSLGLAAGPSSTPETPPRPERPSFMAGASGGASPVAFTPRGGLSPPGHSPGPPRTFPSAPPRASGSHGSLLLPPASSPPPPQVPQRRGTPPLTPGRLTQDLKLISASQPALPQDGAQTLRRASPHSSGESVAAFSLYPRAGGGSGSSGGLGPPGRPYGAIPGQHVTLPRKTSSGSLPPPLSLFGARAASSGGPPLTTAAPQREPGARSEPVRSKLPSNL
activation kinetics compared to HCN2 ([4]; for most voltages): markedly slower
slope factor (K) ([4]; lipofectin transfection): 6.7±0.7 mV
midpoint of activation reported in other mammalian expression studies [5]: −80 to −109 mV
